Measurements from the RNAGym collection of RNA variant scans (doi:10.1073/pnas.2313332121).

B1: TPR t1 (parent)
chain: GACCAAUCUGCCCUCAGAGCUCGAGAACAUCUUCGGAUGCAGAGGAGGCAGGCUUCGGUGGCGCGAUAGCGCCAACGUCCUCAACCUCCAAUGCAUCCCACCACAUGAUGAUGCCUGAAGAGCCUUGGUUUUUUG

Variants of: B1
Assay: polymerase ribozyme fitness, log enrichment relative to wild type (log ratio); higher = more active; in vitro selection for triplet polymerase activity
Summary of the method: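 Streptavidin-bead capture of gel-excised extended constructs, followed by RT-PCR, closed a single triplicate in vitro selection round. That round began by annealing PCR-built, transcribed mutant libraries of each subunit of a heterodimeric triplet polymerase ribozyme with a biotinylated primer, the partner subunit and triplets, then incubating them frozen at −7 °C. After Illumina sequencing of inputs and outputs, genotypes needed ≥10 input reads and ≥1 read per output. Fitness is the base-2 logarithm of genotype enrichment over wild-type enrichment, using inverse-variance-weighted replicate averages.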

Row | Variant | polymerase ribozyme fitness (log ratio)
1 | GACCAAUCUGCCCUCAGAGCUCGAGAACAUCUUCGGAUGCAGAGGAGGCAGGCUUCGGUGGCGCGAUAGCGCCAACGUGCUCAACCUCCAAUGGAUCCCACCACAUGAUGAUACCUGAAGAGCCUUGGUUUUUUG [C79G C94G G113A] | -5.05
2 | GACCAAUCUGCCCUCAGAGCUCGAGAACAUCUUCGGAUGCAGAGGAGGCAGGCUUCGGUGGCGCGAUAGCGCCAACGUCGUCAACCUCCAAUGCAUCCCACCACCUGAUGAUGCCAGAAGAGGCUUGGUUUUUUG [C80G A105C U116A C123G] | -7.31
3 | GACCAAUCUGCCCUCAGAGCUCGAGAACAUCUUCGGAUGCAGAGGAGGCAGGCUUCGGUGGCGCGAUAGCGCCAACGUUCUCAACCUCCAAUGCAUCCCACCACAUGAUGAUGCCUGAAGCGCCUUGGUUUUUUG [C79U A121C] | 1.81
4 | GACCAAUCUGCCCUCAGAGCUCGAGAACAUCUUCGGAUGCAGAGGAGGCAGGCUUCGGUGGCGCGAUAGCGCCAACGUCUUCAACCUCCAAUGUAUCCCACCACAUGAUGAUGCCUGAAGAGCCUUGGUUUUUUG [C80U C94U] | -0.851
5 | GACCAAUCUGCCCUCAGAGCUCGAGAACAUCUUCGGAUGCAGAGGAGGCAGGCUUCGGUGGCGCGAUAGCGCCAACGUUCUCAACCUCCAAUGCAUCCCACCACAUGAUGAUGCCUGAAGAGCCUUGGCUUUUUG [C79U U129C] | 0.161
6 | GACCAAUCUGCCCUCAGAGCUCGAGAACAUCUUCGGAUGCAGAGGAGGCAGGCUUCGGUGGCGCGAUAGCGCCAACGUUCUCAACCUCCAAUGCAUCCCACCACAUGAUGAUGACUGAAGAGCCUUGGUUUUUUG [C79U C114A] | -0.742
7 | GACCAAUCUGCCCUCAGAGCUCGAGAACAUCUUCGGAUGCAGAGGAGGCAGGCUUCGGUGGCGCGAUAGCGCCAACGUCAUCAACCUCCAAUGCUUCCCACCACAUGAUGAUGCCUGAAAAGCCUUGGUGUUUUG [C80A A95U G120A U130G] | -3.52
8 | GACCAAUCUGCCCUCAGAGCUCGAGAACAUCUUCGGAUGCAGAGGAGGCAGGCUUCGGUGGCGCGAUAGCGCCAACGUCAUCAACCUCCAAUGCAUCCCACCACAUGAUGAUGCCUGAAGAGUCUUGGUUUUUUG [C80A C123U] | -2.06
9 | GACCAAUCUGCCCUCAGAGCUCGAGAACAUCUUCGGAUGCAGAGGAGGCAGGCUUCGGUGGCGCGAUAGCGCCAACGUACUCAACCUCCAAUGCAUCCCACCACAUGAUAAUGCCUGAAGAGCCUUGGUUUUUUG [C79A G110A] | -2.55
10 | GACCAAUCUGCCCUCAGAGCUCGAGAACAUCUUCGGAUGCAGAGGAGGCAGGCUUCGGUGGCGCGAUAGCGCCAACGUCGUCAACCUCCAAUGCAUCCCACCACAUGAUGAUGCCUGAAGAGCAUUGGUUUUUUG [C80G C124A] | -5.18
11 | GACCAAUCUGCCCUCAGAGCUCGAGAACAUCUUCGGAUGCAGAGGAGGCAGGCUUCGGUGGCGCGAUAGCGCCAACGUUUUCAACCUCCAAUGCAUCCCACCAUAUGAUGAUGCCUGAAGAGCCUUGGUUUUUUG [C79U C80U C104U] | -1.54
12 | GACCAAUCUGCCCUCAGAGCUCGAGAACAUCUUCGGAUGCAGAGGAGGCAGGCUUCGGUGGCGCGAUAGCGCCAACGUUCUCAACCUCCAAUGCAUCCCACCACAUGAUCAUGCCUGAAGAGCCUUGGUUUUUUG [C79U G110C] | -2.71
13 | GACCAAUCUGCCCUCAGAGCUCGAGAACAUCUUCGGAUGCAGAGGAGGCAGGCUUCGGUGGCGCGAUAGCGCCAACGUUCUCAACCUCCAAUGCAUCCCACCACAUGAUGAUGCCUCAAGAGCCUUGGUUUUUUG [C79U G117C] | -3.9
14 | GACCAAUCUGCCCUCAGAGCUCGAGAACAUCUUCGGAUGCAGAGGAGGCAGGCUUCGGUGGCGCGAUAGCGCCAACGUCUUCAUCCUCUAAUGCAUCCCACCACAUGAUGAUGCCUGAGGAGACUUGGUUUUUUG [C80U A84U C89U A119G C123A] | 0.318
15 | GACCAAUCUGCCCUCAGAGCUCGAGAACAUCUUCGGAUGCAGAGGAGGCAGGCUUCGGUGGCGCGAUAGCGCCAACGUCAUCAACCUCCAAUGCAUCCCACCACAUGAUGAUGCCUGAAGAGCAUUGGUUUUUUG [C80A C124A] | -0.56
16 | GACCAAUCUGCCCUCAGAGCUCGAGAACAUCUUCGGAUGCAGAGGAGGCAGGCUUCGGUGGCGCGAUAGCGCCAACGUCAUCAACCUCCAAUGCAUCCCACCACAUGAUGAUGCCUAAAGAGCCUUGGUUUUUUG [C80A G117A] | -4.27
17 | GACCAAUCUGCCCUCAGAGCUCGAGAACAUCUUCGGAUGCAGAGGAGGCAGGCUUCGGUGGCGCGAUAGCGCCAACGUCUUCAACCUCCAAUGCAUCCCACCACAUGAUGAUGCCUGAAGUGCCUUGGUUUUUUG [C80U A121U] | 1.34
18 | GACCAAUCUGCCCUCAGAGCUCGAGAACAUCUUCGGAUGCAGAGGAGGCAGGCUUCGGUGGCGCGAUAGCGCCAACGUGCUCAACCUCCAAUGCAUCCCACCACAUGAUGAUGCCUGAAGAGCCUGGGUUUUUUG [C79G U126G] | -2.94
19 | GACCAAUCUGCCCUCAGAGCUCGAGAACAUCUUCGGAUGCAGAGGAGGCAGGCUUCGGUGGCGCGAUAGCGCCAACGUGCUCAACCUCCAAUGCAUCCCACCACAUGAUGAUGCCUGAAGAGCCUUGGUUGUUUG [C79G U131G] | -1.06
20 | GACCAAUCUGCCCUCAGAGCUCGAGAACAUCUUCGGAUGCAGAGGAGGCAGGCUUCGGUGGCGCGAUAGCGCCAACGUUAUCAACCUCCAAUGCAUCCCACCACAUGAUGAUGCCUGAAGAGCCUUGGUUUUUUG [C79U C80A] | -3.65
21 | GACCAAUCUGCCCUCAGAGCUCGAGAACAUCUUCGGAUGCAGAGGAGGCAGGCUUCGGUGGCGCGAUAGCGCCAACGUCAUCAACCUCCAAUGCAUCCCACCACAUGAUGAUGCCUGAAGGGCCUUGGUUUUUUG [C80A A121G] | -2.89
